Measurements from paper PMC11803495.

Tests used:
MBP-dPPR-nad7-Δ = molecular target: T1, MBP-dPPR-nad7-Δ (synthetic construct (13 P-type PPR …)); assay: EMSA
T1 chain: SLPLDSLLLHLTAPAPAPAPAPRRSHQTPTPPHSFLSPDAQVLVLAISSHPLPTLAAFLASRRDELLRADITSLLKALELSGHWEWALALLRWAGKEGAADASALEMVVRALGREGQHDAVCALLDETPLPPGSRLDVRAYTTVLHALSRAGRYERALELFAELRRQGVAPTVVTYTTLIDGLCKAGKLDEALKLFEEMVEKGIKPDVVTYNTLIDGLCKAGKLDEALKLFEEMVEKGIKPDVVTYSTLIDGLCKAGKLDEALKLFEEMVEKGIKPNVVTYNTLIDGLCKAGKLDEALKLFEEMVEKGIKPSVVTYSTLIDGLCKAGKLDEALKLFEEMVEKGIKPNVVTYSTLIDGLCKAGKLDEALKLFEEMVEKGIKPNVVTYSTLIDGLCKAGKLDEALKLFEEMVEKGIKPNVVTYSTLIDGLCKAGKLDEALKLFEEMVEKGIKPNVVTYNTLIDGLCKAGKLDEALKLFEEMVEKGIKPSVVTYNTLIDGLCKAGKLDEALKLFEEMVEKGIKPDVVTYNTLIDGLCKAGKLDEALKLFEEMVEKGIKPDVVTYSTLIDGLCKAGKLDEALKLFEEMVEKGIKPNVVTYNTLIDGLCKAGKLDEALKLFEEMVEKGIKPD

MBP-dPPR-nad7-DYW = molecular target: T2, MBP-dPPR-nad7-DYW (synthetic construct (13 P-type PPR …)); assay: EMSA
T2 chain: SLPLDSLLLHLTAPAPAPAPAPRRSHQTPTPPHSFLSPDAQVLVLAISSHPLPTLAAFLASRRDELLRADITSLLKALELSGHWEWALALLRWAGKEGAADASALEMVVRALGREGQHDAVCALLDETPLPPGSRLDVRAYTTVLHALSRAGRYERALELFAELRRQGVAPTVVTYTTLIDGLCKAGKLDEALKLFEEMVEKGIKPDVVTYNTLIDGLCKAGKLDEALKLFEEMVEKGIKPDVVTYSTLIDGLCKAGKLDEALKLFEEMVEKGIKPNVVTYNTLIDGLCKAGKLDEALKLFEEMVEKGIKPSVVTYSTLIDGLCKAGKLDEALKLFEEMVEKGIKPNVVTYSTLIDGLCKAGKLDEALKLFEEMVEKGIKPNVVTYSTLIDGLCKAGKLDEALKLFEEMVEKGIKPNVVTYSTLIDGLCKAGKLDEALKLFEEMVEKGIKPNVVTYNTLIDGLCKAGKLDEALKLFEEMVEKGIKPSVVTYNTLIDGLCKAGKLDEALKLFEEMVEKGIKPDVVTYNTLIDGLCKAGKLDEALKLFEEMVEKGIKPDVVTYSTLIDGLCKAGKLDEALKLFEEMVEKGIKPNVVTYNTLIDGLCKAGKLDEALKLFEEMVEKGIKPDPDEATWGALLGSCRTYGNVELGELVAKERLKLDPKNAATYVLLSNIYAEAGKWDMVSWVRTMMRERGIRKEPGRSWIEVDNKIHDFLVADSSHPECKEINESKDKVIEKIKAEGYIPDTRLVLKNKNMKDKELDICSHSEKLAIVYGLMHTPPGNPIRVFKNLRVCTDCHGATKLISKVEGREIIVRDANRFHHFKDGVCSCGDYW

## CUUUUGAAUUGCGAGGUACCAUUACGAG (ssRNA) [nad7 control]
MBP-dPPR-nad7-Δ
  binding result: no binding
MBP-dPPR-nad7-DYW
  binding result: no binding
